Experiment [1] deals with GST (glutathione-S-transferase)-tagged RPAP3 (human, UniProt Q9H6T3 1-665). In words: pull-down.
In experiment [2] the target is T1, 256–595 domain of Dicer (human, UniProt Q9UPY3 256-595).
T1 sequence: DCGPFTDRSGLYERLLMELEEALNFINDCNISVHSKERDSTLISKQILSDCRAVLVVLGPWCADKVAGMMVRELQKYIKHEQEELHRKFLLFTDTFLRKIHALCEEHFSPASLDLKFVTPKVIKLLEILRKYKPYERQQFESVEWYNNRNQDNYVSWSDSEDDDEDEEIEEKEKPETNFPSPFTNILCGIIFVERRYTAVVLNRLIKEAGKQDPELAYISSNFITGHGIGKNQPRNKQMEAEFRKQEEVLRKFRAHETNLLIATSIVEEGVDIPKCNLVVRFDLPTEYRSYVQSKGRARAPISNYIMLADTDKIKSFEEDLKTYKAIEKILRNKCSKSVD
In words: SEC. In general terms: In gel filtration, larger molecules generally elute earlier.

Results on two molecules are retold here after article PMC8887487 (Nucleic Acids Research, 2022).

Sequence of GST (glutathione-S-transferase)-tagged RPAP3 (Q9H6T3 whole entry, the tested form may be a part): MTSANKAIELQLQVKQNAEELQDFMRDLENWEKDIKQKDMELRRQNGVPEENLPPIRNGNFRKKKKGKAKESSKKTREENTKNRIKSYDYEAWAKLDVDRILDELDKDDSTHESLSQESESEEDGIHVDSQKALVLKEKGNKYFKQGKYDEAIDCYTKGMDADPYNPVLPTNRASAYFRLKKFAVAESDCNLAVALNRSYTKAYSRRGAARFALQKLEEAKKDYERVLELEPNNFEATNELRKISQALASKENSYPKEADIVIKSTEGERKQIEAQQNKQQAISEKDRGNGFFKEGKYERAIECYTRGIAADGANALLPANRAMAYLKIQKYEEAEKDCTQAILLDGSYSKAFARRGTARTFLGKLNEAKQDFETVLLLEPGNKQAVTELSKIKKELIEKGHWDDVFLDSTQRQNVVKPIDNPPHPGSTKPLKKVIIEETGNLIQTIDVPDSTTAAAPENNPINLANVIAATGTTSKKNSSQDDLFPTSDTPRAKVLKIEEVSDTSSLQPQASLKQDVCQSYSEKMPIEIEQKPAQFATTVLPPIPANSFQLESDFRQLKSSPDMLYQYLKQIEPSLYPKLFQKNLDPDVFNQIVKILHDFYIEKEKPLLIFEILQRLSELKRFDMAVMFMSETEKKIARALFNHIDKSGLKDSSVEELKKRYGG

B1: His6-tagged TRBP protein (natural protein)
chain: MSEEEQGSGTTTGCGLPSIEQMLAANPGKTPISLLQEYGTRIGKTPVYDLLKAEGQAHQPNFTFRVTVGDTSCTGQGPSKKAAKHKAAEVALKHLKGGSMLEPALEDSSSFSPLDSSLPEDIPVFTAAAAATPVPSVVLTRSPPMELQPPVSPQQSECNPVGALQELVVQKGWRLPEYTVTQESGPAHRKEFTMTCRVERFIEIGSGTSKKLAKRNAAAKMLLRVHTVPLDARDGNEVEPDDDHFSIGVGSRLDGLRNRGPGCTWDSLRNSVGEKILSLRSCSLGSLGALGPACCRVLSELSEEQAFHVSYLDIEELSLSGLCQCLVELSTQPATVCHGSATTREAARGEAARRALQYLKIMAGSK
As to B1, the binding result in experiment [1] is “binds”.

B2: TRBP-dsRBD3 (262–366) (domain or fragment)
chain: GCTWDSLRNSVGEKILSLRSCSLGSLGALGPACCRVLSELSEEQAFHVSYLDIEELSLSGLCQCLVELSTQPATVCHGSATTREAARGEAARRALQYLKIMAGSK
Consider B2, for which the binding result in experiment [2] is “binds”.
